The results in this text go back to the RNAGym collection of RNA variant scans (doi:10.7554/elife.90254).

Sequences and labels used below:
B1: LINE1-full (parent)
chain: UACGUAGGUGGUUUUCCCCUGAUAGUGCUAAGGGGGCCUGGAAGUUUGGACUGGGCAGAGCUCAACACAGCGUGGCAAAGUGGCUGUGGCUAGACUGCCUCUCUGGAUUCCUCGUCACUCAGCAGGGCAUCUCUGAGAGAAAUGCC

This series covers variants of B1. Description: self-cleavage, relative activity (ratio to wild type); higher = more cleavage; in vitro, sequencing; the parent is a self-cleaving ribozyme.
On to UACGUAGGUGGUUUUCCCCUGAUAGUGCUAAGGGGGCCUGGAAGUUUGGACUGGGCAGAGCUCAACACAGCGUGGCAAAGUGGCUGUGGCUAAGCUGCCUCUCUGGAUUCCUCGUCACUCAGCAGGGCAUCUCUGAGAGAAAUGCC [G93A A94G], for which the self-cleavage was 0.09.

Turning to UACGUAGGUGGUUUUCCCCUGAUAGUGCUAAGGGGGCCUGGAAGUUUGGACUGGGCAGAGCUCAACACAGCGUGGCAAAGUGGCUGUGGCUAUACUGCCUCUCUGGAUUCCUCGUCACUCAGCAGGGCAUCUCUGAGAGAAUUGCC [G93U A142U], the self-cleavage came to 0.04.

For the variant UACGUAGGUGGUUUUCCCCUGAUAGUGCUAAGGGGGCCUGGAAGUUUGGACUGGGCAGAGCUCAACACAGCGUGGCAAAGUGGCUGUGGCUUGACUGCCUCUCUGGAUUCCUCUUCACUCAGCAGGGCAUCUCUGAGAGAAAUGCC [A92U G114U], the self-cleavage worked out at 0.67.

In the case of UACGUAGGUGGUUUUCCCCUGAUAGUGCUAAGGGGGCCUGGAAGUUUGGACUGGGCAGAGCUCAACACAGCGUGGCAAAGUGGCUGUGGCUAAACUGCCUCUCUGGAUUCCUCGUCACUCUGCAGGGCAUCUCUGAGAGAAAUGCC [G93A A121U], the self-cleavage was found to be 0.06.

In the case of UACGUAGGUGGUUUUCCCCUGAUAGUGCUAAGGGGGCCUGGAAGUUUGGACUGGGCAGAGCUCAACACAGCGUGGCAAAGUGGCUGUGGCUAAACUGCCUCUCUGGAUUCCUCGUCACUCAGCAGGGCAUCUCUGAGGGAAAUGCC [G93A A138G], the self-cleavage was determined as 0.06.

For the variant UACGUAGGUGGUUUUCCCCUGAUAGUGCUAAGGGGGCCUGGAAGUUUGGACUGGGCAGAGCUCAACACAGCGUGGCAAAGUGGCUGUGGCUAGCCUGCCUCUCUGGAUUCCUCGUCACUCAGCAGGGCAUCUCUGAGAGAAAUGCC [A94C], the self-cleavage turned out to be 0.06.

In the case of UACGUAGGUGGUUUUCCCCUGAUAGUGCUAAGGGGGCCUGGAAGUUUGGACUGGGCAGAGCUCAACACAGCGUGGCAAAGUGGCUGUGGCUUGACUGCCUCUCUGGAUUCCUCGUCACACAGCAGGGCAUCUCUGAGAGAAAUGCC [A92U U119A], the self-cleavage amounted to 0.72.

On to UACGUAGGUGGUUUUCCCCUGAUAGUGCUAAGGGGGCCUGGAAGUUUGGACUGGGCAGAGCUCAACACAGCGUGGCAAAGUGGCUGUGGCUUGACUGCCUCUCUGGAUUCCCCGUCACUCAGCAGGGCAUCUCUGAGAGAAAUGCC [A92U U112C], for which the self-cleavage stood at 0.48.

Take UACGUAGGUGGUUUUCCCCUGAUAGUGCUAAGGGGGCCUGGAAGUUUGGACUGGGCAGAGCUCAACACAGCGUGGCAAAGUGGCUGUGGCUUGACUGCCUCUCUGGAUUCCUCGUCACUCAGCAGGGCAUCUCUGAGAGAAAUGCG [A92U C146G]: the self-cleavage came out at 0.41.

For UACGUAGGUGGUUUUCCCCUGAUAGUGCUAAGGGGGCCUGGAAGUUUGGACUGGGCAGAGCUCAACACAGCGUGGCAAAGUGGCUGUGGCUUGACUGCCUCUCUGGAUUCCUCGUCACUCAGCAGGGCAUCUCUGAGAGAAGUGCC [A92U A142G], the self-cleavage came out at 0.66.

With UACGUAGGUGGUUUUCCCCUGAUAGUGCUAAGGGGGCCUGGAAGUUUGGACUGGGCAGAGCUCAACACAGCGUGGCAAAGUGGCUGUGGCUAUACUGCCUCACUGGAUUCCUCGUCACUCAGCAGGGCAUCUCUGAGAGAAAUGCC [G93U U102A], the self-cleavage was found to be 0.02.

With UACGUAGGUGGUUUUCCCCUGAUAGUGCUAAGGGGGCCUGGAAGUUUGGACUGGGCAGAGCUCAACACAGCGUGGCAAAGUGGCUGUGGCUAAACUGCCUCUCUGGAUUCCUCGUCACUCAGCAGGGCAUCUCUGAGAGAUAUGCC [G93A A141U], the self-cleavage stood at 0.04.

On to UACGUAGGUGGUUUUCCCCUGAUAGUGCUAAGGGGGCCUGGAAGUUUGGACUGGGCAGAGCUCAACACAGCGUGGCAAAGUGGCUGUGGCUUGACUGCCUCUCUAGAUUCCUCGUCACUCAGCAGGGCAUCUCUGAGAGAAAUGCC [A92U G105A], for which the self-cleavage was found to be 0.77.

With UACGUAGGUGGUUUUCCCCUGAUAGUGCUAAGGGGGCCUGGAAGUUUGGACUGGGCAGAGCUCAACACAGCGUGGCAAAGUGGCUGUGGCUAUACUGCCUCUCUGGACUCCUCGUCACUCAGCAGGGCAUCUCUGAGAGAAAUGCC [G93U U108C], the self-cleavage is 0.05.

As to UACGUAGGUGGUUUUCCCCUGAUAGUGCUAAGGGGGCCUGGAAGUUUGGACUGGGCAGAGCUCAACACAGCGUGGCAAAGUGGCUGUGGCUUGACUGCCUCUCCGGAUUCCUCGUCACUCAGCAGGGCAUCUCUGAGAGAAAUGCC [A92U U104C], the self-cleavage is 0.96.

UACGUAGGUGGUUUUCCCCUGAUAGUGCUAAGGGGGCCUGGAAGUUUGGACUGGGCAGAGCUCAACACAGCGUGGCAAAGUGGCUGUGGCUUGACUGCCUCUCUGGAUUCCUCGUCACUCAGCAGGGCAUCUCUGAGAGAAACGCC [A92U U143C]: the self-cleavage amounted to 0.99.

In the case of UACGUAGGUGGUUUUCCCCUGAUAGUGCUAAGGGGGCCUGGAAGUUUGGACUGGGCAGAGCUCAACACAGCGUGGCAAAGUGGCUGUGGCUUGACUGCCUCUCUGGAUUCCUCGUCACUCAGCAGGGCAUCUCUGAGAGAAAAGCC [A92U U143A], the self-cleavage is 0.6.

As for UACGUAGGUGGUUUUCCCCUGAUAGUGCUAAGGGGGCCUGGAAGUUUGGACUGGGCAGAGCUCAACACAGCGUGGCAAAGUGGCUGUGGCUUGACUGCCUCUCUGGAUUCCUCGUCACUCAGCAGGGUAUCUCUGAGAGAAAUGCC [A92U C128U], the self-cleavage came out at 0.47.

With UACGUAGGUGGUUUUCCCCUGAUAGUGCUAAGGGGGCCUGGAAGUUUGGACUGGGCAGAGCUCAACACAGCGUGGCAAAGUGGCUGUGGCUUGACUGCCUCUCUGGAUUCCUCGUCACUCAGCAGGGCACCUCUGAGAGAAAUGCC [A92U U130C], the self-cleavage worked out at 0.73.

With UACGUAGGUGGUUUUCCCCUGAUAGUGCUAAGGGGGCCUGGAAGUUUGGACUGGGCAGAGCUCAACACAGCGUGGCAAAGUGGCUGUGGCUUGACUGCCUCUCUGGAUUCCUCGUCACUCAGCAGGGCAGCUCUGAGAGAAAUGCC [A92U U130G], the self-cleavage amounted to 1.61.

As for UACGUAGGUGGUUUUCCCCUGAUAGUGCUAAGGGGGCCUGGAAGUUUGGACUGGGCAGAGCUCAACACAGCGUGGCAAAGUGGCUGUGGCUAAACUGCCUAUCUGGAUUCCUCGUCACUCAGCAGGGCAUCUCUGAGAGAAAUGCC [G93A C101A], the self-cleavage is 0.04.

With UACGUAGGUGGUUUUCCCCUGAUAGUGCUAAGGGGGCCUGGAAGUUUGGACUGGGCAGAGCUCAACACAGCGUGGCAAAGUGGCUGUGGCUAAACUGCCUCUCUGGAUUCCUCGCCACUCAGCAGGGCAUCUCUGAGAGAAAUGCC [G93A U115C], the self-cleavage is 0.04.

Take UACGUAGGUGGUUUUCCCCUGAUAGUGCUAAGGGGGCCUGGAAGUUUGGACUGGGCAGAGCUCAACACAGCGUGGCAAAGUGGCUGUGGCUUGACUGCCUCUCUGGAUUCCUCGUCACUCAGCAGGGCAUCUCUGAGAGGAAUGCC [A92U A140G]: the self-cleavage was 0.53.

In the case of UACGUAGGUGGUUUUCCCCUGAUAGUGCUAAGGGGGCCUGGAAGUUUGGACUGGGCAGAGCUCAACACAGCGUGGCAAAGUGGCUGUGGCUUGACUGCCUCUCUGGAUUCCUCGUCACUCAGCAGGGCAUCUCUGAGAAAAAUGCC [A92U G139A], the self-cleavage is 0.76.

Consider UACGUAGGUGGUUUUCCCCUGAUAGUGCUAAGGGGGCCUGGAAGUUUGGACUGGGCAGAGCUCAACACAGCGUGGCAAAGUGGCUGUGGCUUGACUGCCUCACUGGAUUCCUCGUCACUCAGCAGGGCAUCUCUGAGAGAAAUGCC [A92U U102A], for which the self-cleavage turned out to be 0.79.

Regarding UACGUAGGUGGUUUUCCCCUGAUAGUGCUAAGGGGGCCUGGAAGUUUGGACUGGGCAGAGCUCAACACAGCGUGGCAAAGUGGCUGUGGCUUGACUGCCUCCCUGGAUUCCUCGUCACUCAGCAGGGCAUCUCUGAGAGAAAUGCC [A92U U102C], the self-cleavage stood at 0.3.

UACGUAGGUGGUUUUCCCCUGAUAGUGCUAAGGGGGCCUGGAAGUUUGGACUGGGCAGAGCUCAACACAGCGUGGCAAAGUGGCUGUGGCUAAACUGCCUCUCUGGAUUCCUCGUCACCCAGCAGGGCAUCUCUGAGAGAAAUGCC [G93A U119C]: the self-cleavage was 0.04.

Turning to UACGUAGGUGGUUUUCCCCUGAUAGUGCUAAGGGGGCCUGGAAGUUUGGACUGGGCAGAGCUCAACACAGCGUGGCAAAGUGGCUGUGGCUAAACUGCCUCUCUGGAUUCCUCGUCACACAGCAGGGCAUCUCUGAGAGAAAUGCC [G93A U119A], the self-cleavage stood at 0.03.

Regarding UACGUAGGUGGUUUUCCCCUGAUAGUGCUAAGGGGGCCUGGAAGUUUGGACUGGGCAGAGCUCAACACAGCGUGGCAAAGUGGCUGUGGCUAUACUGCCUCUCUGGAUUCCUCGUCACUCAGCAGGGCAUCUCUGAGAGAUAUGCC [G93U A141U], the self-cleavage is 0.02.

UACGUAGGUGGUUUUCCCCUGAUAGUGCUAAGGGGGCCUGGAAGUUUGGACUGGGCAGAGCUCAACACAGCGUGGCAAAGUGGCUGUGGCUAUACUGCCUCUCUGGAUUCCUCGUCACUCAGCAGGGCAUCUCUGAGAGAGAUGCC [G93U A141G]: the self-cleavage was determined as 0.03.

Turning to UACGUAGGUGGUUUUCCCCUGAUAGUGCUAAGGGGGCCUGGAAGUUUGGACUGGGCAGAGCUCAACACAGCGUGGCAAAGUGGCUGUGGCUUGACUGCCCCUCUGGAUUCCUCGUCACUCAGCAGGGCAUCUCUGAGAGAAAUGCC [A92U U100C], the self-cleavage amounted to 0.9.

In the case of UACGUAGGUGGUUUUCCCCUGAUAGUGCUAAGGGGGCCUGGAAGUUUGGACUGGGCAGAGCUCAACACAGCGUGGCAAAGUGGCUGUGGCUAAACUGCCUCUCUGGGUUCCUCGUCACUCAGCAGGGCAUCUCUGAGAGAAAUGCC [G93A A107G], the self-cleavage stood at 0.06.

As for UACGUAGGUGGUUUUCCCCUGAUAGUGCUAAGGGGGCCUGGAAGUUUGGACUGGGCAGAGCUCAACACAGCGUGGCAAAGUGGCUGUGGCUAUACCGCCUCUCUGGAUUCCUCGUCACUCAGCAGGGCAUCUCUGAGAGAAAUGCC [G93U U96C], the self-cleavage came out at 0.06.

On to UACGUAGGUGGUUUUCCCCUGAUAGUGCUAAGGGGGCCUGGAAGUUUGGACUGGGCAGAGCUCAACACAGCGUGGCAAAGUGGCUGUGGCUUGACUGCCUCUCUGGAUUCCUCGUCACUCAGCAGGACAUCUCUGAGAGAAAUGCC [A92U G127A], for which the self-cleavage was found to be 0.39.

Consider UACGUAGGUGGUUUUCCCCUGAUAGUGCUAAGGGGGCCUGGAAGUUUGGACUGGGCAGAGCUCAACACAGCGUGGCAAAGUGGCUGUGGCUAAACUGCCUCUCUUGAUUCCUCGUCACUCAGCAGGGCAUCUCUGAGAGAAAUGCC [G93A G105U], for which the self-cleavage was 0.02.

As to UACGUAGGUGGUUUUCCCCUGAUAGUGCUAAGGGGGCCUGGAAGUUUGGACUGGGCAGAGCUCAACACAGCGUGGCAAAGUGGCUGUGGCUUGACUGCCUCUCUGGACUCCUCGUCACUCAGCAGGGCAUCUCUGAGAGAAAUGCC [A92U U108C], the self-cleavage worked out at 1.2.

With UACGUAGGUGGUUUUCCCCUGAUAGUGCUAAGGGGGCCUGGAAGUUUGGACUGGGCAGAGCUCAACACAGCGUGGCAAAGUGGCUGUGGCUUGACUGCCUCUCUGUAUUCCUCGUCACUCAGCAGGGCAUCUCUGAGAGAAAUGCC [A92U G106U], the self-cleavage worked out at 0.62.

As for UACGUAGGUGGUUUUCCCCUGAUAGUGCUAAGGGGGCCUGGAAGUUUGGACUGGGCAGAGCUCAACACAGCGUGGCAAAGUGGCUGUGGCUAGCCUGCCUCUCUGGAUUCCUCGUCACUCAGCGGGGCAUCUCUGAGAGAAAUGCC [A94C A124G], the self-cleavage amounted to 0.02.

As for UACGUAGGUGGUUUUCCCCUGAUAGUGCUAAGGGGGCCUGGAAGUUUGGACUGGGCAGAGCUCAACACAGCGUGGCAAAGUGGCUGUGGCUAGCCUGCCUCUCUGGAUUCCUCGUCACUCAGCUGGGCAUCUCUGAGAGAAAUGCC [A94C A124U], the self-cleavage was found to be 0.
